Assay results: the nanobody polyreactivity screen of Harvey et al. (2022)

Assay: yeast display, Sf9 membrane polyspecificity reagent, FACS + sequencing; frameworks hold sequencing errors
Summary of the method: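 In a synthetic yeast display library (Saccharomyces cerevisiae BJ5465), nanobody expression was induced with galactose for 36–48 hours. FACS gates were set low and high (top ~1%) using anti-HA fluorescence for expression and streptavidin fluorescence for binding of the Sf9 membrane reagent. Each polyreactivity label is drawn from the gate of origin.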

QVQLVESGGGLVQAGGSLRLSCAASGSTFYSYAMGWYRPAPGKERELVAAITTSGGSTYYADSVKGRFTISRDNAKNTVYLQMNSLKPEDTAVYYCNAYFIYEGGWYYKAQYDYWGQGTQVTVSS
polyreactivity (PSR sort gate): low polyreactivity

QEQLQESGGGLVQAGCSLRLSCAANGYIFSVEDMGRYCLAPGKEREFVATINYDTSTYYADSVKGSFTISRDNAKKTVYLQMNSLKPEDTEVYYCEAYFYAYRSPGYWGQGTQVTVSS
polyreactivity (PSR sort gate): high polyreactivity

QVQRVESGGGLVQARGSLRLSCAASGLIFPPNVMGWYRQAPGKESEFVAAITSSGSTNYADSVKGRFTISRDNAKYTVYIQMNSLKPEDTAVYYCARDQTWSYQPWYYLSYPQYEYWGQGTEVTVSS
polyreactivity (PSR sort gate): low polyreactivity

QVQLVESGGGLVQAGGSLRLSCAASGSIFTDNAMGWYKQAPGKERELVAVISSGGRTYYADSVKGRFTISRDNAKNTVYLQMNSLKPEDTAVYYCKGQKRYPFSGIEDYWGQGTQVNVSS
polyreactivity (PSR sort gate): high polyreactivity

QVQHVESGGGLVQAGGSLRLSCAPSGITFYTYTMGWYRQAHGKERQLVAVISASGARTYYADSVKGRFTISRDNAKNTVYLQMNSLKPEDTAVYYCAARSYFISPWRFDYWGQGTQVTVSS
polyreactivity (PSR sort gate): high polyreactivity

QVQLVESGGGLVQAGGSLRLSCAASGSTFDSYAMGWYRQAPGKERELVAAISRSGGRTYYADSVKGRFTISRDNAKNTVYLQMNSLKPEDTAVYYCAAPVKVGHSLSGGDYWGQGTQVTVSS
polyreactivity (PSR sort gate): high polyreactivity

QVQLVESGGGLVQAGGSLRLSCAASGRIFYKSAMGWSRQAPGKEREWVAAITTSGGSTYYADSVKGRFTISRDNAKNTVYLQMNSLKPEDTAVYYCAARSAYGTQRLYYWGQGTQVTVSS
polyreactivity (PSR sort gate): high polyreactivity

QVQLVESGGGLVQAGGSLRLSCAASGFIFGNNDMGWYRQAPGKERELVAGITWSGSSTYYADSVKGRFTISRDNAKNTVYLQMNSLKPEDTAVYYCNRVFTWRYGYRYEYWGQGTQVTVSS
polyreactivity (PSR sort gate): high polyreactivity

PVQLVESGGGLVHAGGSLRLSCAASGLTFRYYAMGLYRQAPGKERELVASISWSGASTYYADSVKGRFTISRDNAKNTVYLQMNSLKPEDTEVYYCNAGYYGSYDYWGQGTQVTVSS
polyreactivity (PSR sort gate): high polyreactivity

QVQLVESGGGIVQAGGSLRLSCAASGRTTSVYAIGWYRQAPGKERELVAAINRSDGGTYYADSVKGRFTISRDNAKNTVYLQMNRLQPEDTAVYYCNAVVLYGWYGRRYSSRLDYWGQGTQVTVSS
polyreactivity (PSR sort gate): high polyreactivity

QVQLVESGGGLVQAGGSLRLSCAASGSTFSPYGMGWYRQAPGKERELVAAIRGRGGNTYYADSVKGRFTISRDNAKNTVYLQMNSLKPEDTAVYYCAAQSFAQYGWRYGDWGQGTQVTVSS
polyreactivity (PSR sort gate): high polyreactivity

QVQLVESGGGLVQAGGSLRLSCAASGRTLGTYAMGWYRQAPGKERELVAAISVSSGSTYYADSVKGRFTISRDTAKNTVYLQMNSLKPEDTAVYYCAALPVYHYDSWGQGTQVTVSS
polyreactivity (PSR sort gate): high polyreactivity

QVQLVESGGGLVQAGGSLRLSCPASGFIYWSYAMGWYRQAPGKERELVADIDSDASTDYADSVKGRFTITRDNAKNTVYLQMNSLKPEDTAVYYCAALASIQQYPGNFYYWGQGTQVTVSS
polyreactivity (PSR sort gate): high polyreactivity

QVQLVESGGGLVQAGGSLRLSCAASGITFGAYTMGWYRQAPGKERELVAAISRTGARTYYADSVKGRFTISRDNAKNTVYLQMNSLKPEDTAVYYCAAYRIGQYDYWGQGTQVTVSS
polyreactivity (PSR sort gate): high polyreactivity

QVQLVESGGGLVQARGSLRLSCAASGFTSLWNGMGLSSQAPGKERELVAAITSDSSTYYADSVKGRFTISRDNAKNTVYLQMNSLKPEDTAVYYCAKYFVYVGYGRYDYWGQGTEVTVSS
polyreactivity (PSR sort gate): low polyreactivity

QVQLVESGGGLVQAGGSLRLSCAASGNILEGYTMGWYRQAPGKERELVATISGRGGSTYYADSVKGRFTISRDYAKNTVYLQMHSLKPEDTAVYYCNALPWALYDSTSIYYYWGQGTQVTVSS
polyreactivity (PSR sort gate): low polyreactivity

QVQLVESGGGLVQAGGSLRLSCAASGRIFTDNAMGWYRQEPGKERELVAAIRGSGSSTYYADSVKGRFTISRDNAKNTVYLQMNSLKPEDTAVYYCAARRAVYRGNYWGQGTQVTVSS
polyreactivity (PSR sort gate): high polyreactivity

QVQLVESGGGLVQAGGSLRLSCAASGRTFPVYAMGWYRQAPGKERELVAAIRFSGGSTYYADSVKGRFTISRDNAKNTVYLQMNSLKPEDTAVYYCAADDWSWSTAWVPWYNYDYWGQGTQVTVSS
polyreactivity (PSR sort gate): low polyreactivity

QVQLVESGGGLVQAGGSLRLSCAASGSIFYTYAMGWYRQAPGKERELVAAISWSDTTTYYAVSVKGRFTISRDSAKNTVYLQMNSLKPEDTAVYYFAADAYTNSYWYDYWGQGTQVTLSS
polyreactivity (PSR sort gate): high polyreactivity

PVQLVESGGGLDQAGGSLRLTCAASGSIFYYNAKGWYRQSPGKERELVAAISSDGGTYYADSVKARFTISRDNAKKTVYLQMNSLKPEDTAVYYCAASQPSTYDYWGQGTQLTVSS
polyreactivity (PSR sort gate): high polyreactivity

QVQLVESGGGLVQAGGSLRLSCASSGFIFRWYTMGWYRQAPGKERELVAAISWSSGSTSYADSVKGRFTISRDNAKNTVYLQMNSLKPEDTAVYYCAAVWRTASTQYYYWGQGTQVTVSS
polyreactivity (PSR sort gate): high polyreactivity

QVQLVESGGGLVQEGGSLGLSCAASGFIFVRYAMGWYRQAPGKERELVATITRGGGTYYADSVKARFTISRDNAKNTVYLQMKRLKPVDTAVYYCNKRGYSRYTGFGLDSWGQGTQVTVSS
polyreactivity (PSR sort gate): high polyreactivity

QVQLVESGGGLVQAGGSLRLSCAASGLTFQYYTMGWYRQAPGKERELVAAINWSGGSTYYADSVKGRFTISRDNAKNTVYLQMNSLKPVDTAVYYCNAVRFVEHDYWGQGTQVTVSS
polyreactivity (PSR sort gate): high polyreactivity

QVQLQESGGGLVLAGGSMRLSCAASGSISAHAYMGWERQAPGKEREHVAGINYGDNTNYADSVKGRFTISRDNEHRVSADEQPETGRYRGVLLRGFLELFYYYIYWGQGTQVTVSS
polyreactivity (PSR sort gate): high polyreactivity

QVQHVESGGGLVQAGGSLRLSCAASARTFHGYPLGVYRQAAGKETELVARINWSDGRTYYADSVKGRFTMSRDNAKNTVYFQMNSLKPEDTAFYYCAAEKTVSYAPAWYYYWGQGTQVTVSS
polyreactivity (PSR sort gate): low polyreactivity

QVQLVESGGGLVQAGGSLRLSCAASGSIFDDYAMGWYRQAPGKERELVAAISSSGTSTYYADSVKGRFTISRDNAKNTVYLQMNSLKPEDTAGYYCAARSAILKSGYLMDYWGQGTQVTVSS
polyreactivity (PSR sort gate): low polyreactivity

QVQLVESGGGLVQAGGSLRLSCAASGFILGYYVMGWYRQAPGKERELVAAISSGGRTYYADSVKGRFTISRDNAKNTVYLQMNSLKPEDTAVYYCNAYAPRRRFDYWGQGTQVTVSS
polyreactivity (PSR sort gate): high polyreactivity

QVQHVESGGGLVQAGGSNRLSCASSGSTFPGNAMGWYRQAPGKERELVARINDGADTNYADSVKGRFTISRDNAKNTVFLQMNSLKPEDTAVYYCAKPFYDGRTHFVSWGQGTQVTVSS
polyreactivity (PSR sort gate): low polyreactivity

QVQLVESGGGLVQAGGSLRLSCAASGSTFRYNTMGWYRQAPGKEMELVARITSVGSTNYADSVKGRFTISRDNAKNTVYFQMNSLKPEDTAVYYCATTRPIRRTSARYNYWGQGTQVTVSS
polyreactivity (PSR sort gate): low polyreactivity

QVQIVESGGGLVQAGGSLRLSCAPSGSTFGSNAMGWYRQAPGKERELVAAIRWSGGSTYYADSVKGRFTISRDNAKNTVYLQMNSLKPEDTAVYYCNAVYGRQYRGYNYKYYYWGQGTQVTVSS
polyreactivity (PSR sort gate): high polyreactivity

QVQLVESGGGLVQAGGSLRLSCAPSGFTFSQYAMGWYRQAPGKEREFVAAISRSGGSTYYADSVKGRFTISRDNAKNTVYLQMNSLKPEDTAVYYCAAGLVATFSRRGRASYRYNYWGHGTQVTVSS
polyreactivity (PSR sort gate): high polyreactivity

QVQLQESGGGLVQAGGSLRLSCAESGSISRYYDMGWYRQAPGKEREFVAGISGGAITYYADSVKGRFTISRDNAKNTVYLQMNSLKPEDTAVYYCAADTGVYQYHSYWGQGTQVTVSS
polyreactivity (PSR sort gate): low polyreactivity

QVQLVESGGGLVQAGGSLRLSCAASGRTFNRYAMGWYRQAPGKERELVAAISWRGDSTYYADSVKGRFTISRDNAKNTVYLQMNSLKPEDTAVYYCAARGNFWGQGTQVTVSS
polyreactivity (PSR sort gate): high polyreactivity

QVQLVESGGGLVQAGGSLRLSCAASGSILRRNTMGWYRQAPGKERELVAAINKSGGSTYYADSVKGRFTISRDNAKNTVYLQMNSLKPEDTAVYYCNRDNYYGTKYDYWGQGTQVTVSS
polyreactivity (PSR sort gate): low polyreactivity

QVQLVESGGGLVQAGGSLRLSCAASGSTFSYYGMGWYRQAPGKERELVAAIDYSGDSTYYADSVKGRFTISRDNAKNTVYLQMNSMKPEDTALYYCNAAHSVRHYAIHLGYWGQGTQVTVSS
polyreactivity (PSR sort gate): low polyreactivity

QVQLVESGGGLVQAGGSLRLSCAASGRIFPDNTLGWYRQAPGKERELVAVITYSGGSTYYADSVKGRFTISRDNAKNTVYLQMNSLKPEDTAVYYCAARDYYIWFAEVDSWGQGTQVTVSS
polyreactivity (PSR sort gate): low polyreactivity

QVHLVESGGGLVQARGSLRLSCAASGSTIGYNTMVWYRQAPGKERELVAAITSGGRTYYADSVKGRFTISRDYAKNTVYLQMNSLKPEDSAVYYCAAYYWWGYPENEYWGQGTQVTVSS
polyreactivity (PSR sort gate): high polyreactivity

QVQLVESGGGLVQAGGSLRLSCAASGSTFPYYAMGWYRQAPGKERELVAAITSGGSTNYADSVKGRFTISRDNAKNTVYLQMNSLKPEDTAVYYCAADFALPNALPEYDYGAFDYNYWGQGTQVTVSS
polyreactivity (PSR sort gate): low polyreactivity

QVQLVESGGGLVQAGGSLRLSSAASGFIFPAYAMGWYRQAPGKDRELVAAISKSGGRTYYADSVKGRFTISRDNAKNTVYLQMNSLKPEDTAVYYCNKDRYPREQYTWKYAWGYDYWGQGTQVTVSS
polyreactivity (PSR sort gate): high polyreactivity

QVQLVESGGGLVQAGGSLRLSCAASGLIFSVYAMGWYRKAPGKERELVAAITGGGSTHYADSVKGRFTISRDNAKNTVYLQMNSLKPEDTAVYYCATRSYSWLHYWTSRGDEDYWGQGTQVTVSS
polyreactivity (PSR sort gate): high polyreactivity

QVQLVESGGGLVQAGGSLRLSCAASGRIFYRYARGWYRQAPGKEREFVAAISGTGGSTYYADSVKGRFTISRDNAKNTVYLQMNSLKPEDTAVYYCAAFSYYSSGYDYWGQGTQVTVSS
polyreactivity (PSR sort gate): high polyreactivity

QVQLVESGGGLVQAGVSLRLSCAASGFIFRPYTMGWYRLAPGKERELVAAISRSGDSTYYADSVKGRFTISRDNAKNTVYLQMNSLKPEDTAVYYCAAYYNGRVGPYYYWGQGTQVTVSS
polyreactivity (PSR sort gate): high polyreactivity

QVQLVESGGGLVQAGGSLRLSCAASGFIFFKNAMGWYRQAPGKERELVDVISTSGGRTYYADSVKGRFTISRDYAKNTVYLQMNSLKPEDTAVYYCAAGDQYKTRRNGYGYWGQGTQVTVSS
polyreactivity (PSR sort gate): high polyreactivity
